Measurements from the supplement of paper PMC7877785.
± gives the uncertainty stated by the source.

Assay: self-splicing fitness, log relative to wild type (ln ratio); higher = more splicing; Tetrahymena group I intron in knt gene, E. coli kanamycin selection, DiMSum; sequences stand for … in CUCUCU…GGAGGGAAAAGUUAUCAGGCAUGCACCUGGUAGCUAGUCUUUAAACCAAUAGAUUGCAUCGGUUUAAAAGGCAAGACCGUCAAAUUGCGGGAAAGGGGUCAACAGCCGUUCAGUACCAAGUCUCAGGGGAAACUUUGAGAUGGCCUUGCAAAGGGUAUGGUAAUAAGCUGACGGACAUGGUCCUAACCACGCAGCCAAGUCCUAAGUCAACAGAUCUUCUGUUGAUAUGGAUGCAGUUCACAGACUAAAUGUCGGUCGGGGAAGAUGUAUUCUUCUCAUAAGAUAUAGUCGGACCUCUCCUUAAUGGGAGCUAGCGGAUGAAGUGAUGCAACACUGGAGCCGCUGGGAACUAAUUUGUAUGCGAAAGUAUAUUGAUUAGUUUUGGAGUACUCGUGGUCG
In short: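 Fitness was computed with DiMSum as the error-weighted combination of replicate fold changes, kanamycin versus none, each normalised to wild type. The library randomised all eight intron nucleotides of the P1ex region, with the intron placed in the knt kanamycin-resistance gene on pET-22b(+) in E. coli BL21(DE3). Six replicate transformations were grown overnight at 37°C or 30°C on LB agar with or without 25 μg/mL kanamycin, plus 100 μg/mL carbenicillin, 50 μM IPTG and 0.2% rhamnose. Pooled colonies were amplicon-sequenced on an Illumina HiSeq 2500.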

Row | Sequence | self-splicing fitness (ln) (30 °C) | self-splicing fitness (ln) (37 °C)
1 | GGACAGCAAUAUUACGACAC | -0.596 ± 0.1 | 0.167 ± 0.13
2 | GGACAGCAAUAUUACGAGAC | -2.05 ± 0.33 | -1.1 ± 0.16
3 | GGACAGCAAUAUUACGCCAU | -1.98 ± 0.26 | -2.03 ± 0.46
4 | GGACAGCAAUAUUACGCGAC | -2.27 ± 0.28 | -1.09 ± 0.24
5 | GGACAGCAAUAUUACGGAAG | -2.62 ± 0.13 | -1.36 ± 0.14
6 | GGACAGCAAUAUUACGGAGC | -0.749 ± 0.089 | -0.621 ± 0.09
7 | GGACAGCAAUAUUACGGUGC | -1.58 ± 0.094 | -0.8 ± 0.11
8 | GGACAGCAAUAUUACGUCCC | -3.31 ± 0.4 | –
9 | GGACAGCAAUAUUACGUCGA | 0.00434 ± 0.082 | 0.755 ± 0.12
10 | GGACAGCAAUAUUACGUCUU | -3.29 ± 0.091 | -1.9 ± 0.099
11 | GGACAGCAAUAUUACGUUCC | -2.58 ± 0.3 | -2.84 ± 0.45
12 | GGAGAGCAAUAUUACGAACC | -2.16 ± 0.43 | –
13 | GGAGAGCAAUAUUACGACAC | -0.961 ± 0.28 | 0.238 ± 0.22
14 | GGAGAGCAAUAUUACGCAUG | – | -0.0425 ± 0.28
15 | GGAGAGCAAUAUUACGCCUA | -2.28 ± 0.32 | -2.48 ± 0.34
16 | GGAGAGCAAUAUUACGCGAC | -2.83 ± 0.21 | -2.22 ± 0.34
17 | GGAGAGCAAUAUUACGCUGA | -2.98 ± 0.19 | -1.36 ± 0.24
18 | GGAGAGCAAUAUUACGGCUG | -2.1 ± 0.21 | -0.692 ± 0.21
19 | GGAGAGCAAUAUUACGUCAU | -2.38 ± 0.31 | -2.61 ± 0.33
20 | GGAGAGCAAUAUUACGUGAU | -3.33 ± 0.24 | -1.75 ± 0.31

Row | Sequence | self-splicing fitness (ln) (30 °C) | self-splicing fitness (ln) (37 °C)
21 | GGAGAGCAAUAUUACGUGCA | -1.92 ± 0.29 | -2.03 ± 0.32
22 | GGAGAGCAAUAUUACGUGGU | -3.28 ± 0.16 | -3.01 ± 0.26
23 | GGAGAGCAAUAUUACGUGUA | -2.77 ± 0.29 | -3.17 ± 0.33
24 | GGAGAGCAAUAUUACGUUUA | -3.83 ± 0.33 | -2.03 ± 0.17
25 | GGAUAGCAAUAUUACGAAAU | -1.09 ± 0.12 | -0.476 ± 0.12
26 | GGAUAGCAAUAUUACGACAU | -0.425 ± 0.014 | -0.0181 ± 0.034
27 | GGAUAGCAAUAUUACGACUU | 0.215 ± 0.18 | 0.847 ± 0.17
28 | GGAUAGCAAUAUUACGAUAU | -0.868 ± 0.14 | -0.583 ± 0.19
29 | GGAUAGCAAUAUUACGAUGG | -1.27 ± 0.38 | –
30 | GGAUAGCAAUAUUACGAUUC | -2.52 ± 0.15 | -0.731 ± 0.16
31 | GGAUAGCAAUAUUACGCCGU | -1.74 ± 0.25 | -0.441 ± 0.2
32 | GGAUAGCAAUAUUACGCGGA | -2.65 ± 0.43 | -1.57 ± 0.31
33 | GGAUAGCAAUAUUACGCGUG | -1.49 ± 0.087 | -0.118 ± 0.08
34 | GGAUAGCAAUAUUACGCUCG | -0.451 ± 0.24 | -0.208 ± 0.35
35 | GGAUAGCAAUAUUACGCUGA | -1.13 ± 0.13 | -1.19 ± 0.14
36 | GGAUAGCAAUAUUACGGAAC | -1.9 ± 0.22 | -2.03 ± 0.29
37 | GGAUAGCAAUAUUACGGACA | -1.68 ± 0.16 | -0.273 ± 0.16
38 | GGAUAGCAAUAUUACGGAGC | -3.05 ± 0.26 | -2.51 ± 0.25
39 | GGAUAGCAAUAUUACGGCCG | -0.857 ± 0.18 | 0.103 ± 0.2
